Source: patent US7423017B2, “Method for treating cartilage disorders” (Genentech, Inc., priority 1997, dated 2008)

How the values were obtained:
IGFBP-1 [1] = experiment: competitive phage ELISA of IGF-1 mutants, IGFBP-1; type: binding, human; conditions: relative IC50 IGFBP-1/relative IC50 IGFBP-3
Protocol: (§1) An alanine-scanning mutagenesis approach (Cunningham and Wells, Science, 244: 1081-1085 (1989); U.S. Pat. No. 5,834,250) was used to remove that portion of each side chain of IGF-1 beyond the beta carbon. The contribution of these atoms to the free energy of binding of the IGF-1 analog to IGFBP-1 or to IGFBP-3 was then assessed by competitive phage ELISA. In this assay, IGFBP-1 or IGFBP-3 is used to inhibit IGF-phage mutants from binding to an IGFBP-1- or IGFBP-3-coated immunosorbant plate.
(§2) Immunosorbent plates (Nunc, MAXISORP™, 96 wells) were coated with 100 μl/well of 1 μg/ml IGFBP-1 or IGFBP-3 in PBS buffer pH 7.2 at 4° C. overnight. The plates were then blocked with 0.5% TWEEN 20™/PBS (also used as binding buffer) for 2 hours at room temperature (proteinaceous blocking agents like bovine serum albumin were avoided to prevent potential IGF or IGFBP contamination). E. coli cells (XL1-Blue, Stratagene) freshly transformed with phagemid vector were grown overnight in 5 mL 2YT medium (Sambrook et al., supra) in the presence of M13-VCS helper phage (Stratagene). Phage particles were harvested and resuspended in PBS buffer as described in Lowman, H. B., “Phage Display of Peptide Libraries on Protein Scaffolds,” in Cabilly, S. (ed.), Combinatorial Peptide Library Protocols (Humana Press Inc.: Totowa, N.J., 1998), pp. 249-264. Then phage concentrations were normalized to yield a maximal ELISA signal of 0.2-0.4 for each mutant (Lowman, in Cabilly, S. (ed.), supra). Threefold serial dilutions of soluble competitor were prepared on non-absorbent microtiter plates (Nunc, F, 96 wells) with binding buffer (0.5% TWEEN 20™/PBS) containing phage at the previously determined concentrations. The dilution range of competitor protein extended over six orders of magnitude, starting at 5 μM for IGFBP-1 and 500 nM for IGFBP-3. After blocking, the plates containing immobilized target were washed with 0.05% TWEEN™/PBS buffer and subsequently incubated with 80 μl/well of the premixed phage-competitor solutions for 1 hour at room temperature. After washing, bound phage was detected with 80 μl/well of a solution containing a primary rabbit anti-phage polyclonal antibody and a secondary goat anti-rabbit monoclonal antibody-horseradish peroxidase conjugate in 0.5% TWEEN 20™/PBS. o-Phenylenediamine (Sigma) and tetramethylbenzidine (Kirkegaard and Perry) were used as chromogenic substrates, resulting in product detection at 492 and 450 nm, respectively. IC50 values were determined by fitting the binding data to a generic saturation curve (Lowman, in Cabilly, S. (ed.), supra). At least two individual clones of each IGF-1 mutant were assayed. Numbers in Table XIII represent mean±standard deviation of individually assessed IC50 values.

IGFBP-3 = target: T1, IGFBP-3 (Homo sapiens, UniProt P17936); experiment: competitive phage ELISA of IGF-1 mutants, IGFBP-3; type: binding; conditions: for larger effects on IGFBP-3 than on IGFBP-1 binding / increase in IGFBP-3 binding: phage ELISA; for IC50: phage display, soluble IGFBP-3 competitor
T1 construct: made in house
Protocol: as §1, §2

IGFBP-1 [2] = target: T2, IGFBP-1 (Homo sapiens, UniProt P08833); experiment: competitive phage ELISA of IGF-1 mutants, IGFBP-1; type: binding; design: made in house; host or cells: CHO cells; conditions: for increase in IGFBP-1 binding: phage ELISA; for IC50: phage display, soluble IGFBP-1 competitor
T2 sequence (P08833 26-259): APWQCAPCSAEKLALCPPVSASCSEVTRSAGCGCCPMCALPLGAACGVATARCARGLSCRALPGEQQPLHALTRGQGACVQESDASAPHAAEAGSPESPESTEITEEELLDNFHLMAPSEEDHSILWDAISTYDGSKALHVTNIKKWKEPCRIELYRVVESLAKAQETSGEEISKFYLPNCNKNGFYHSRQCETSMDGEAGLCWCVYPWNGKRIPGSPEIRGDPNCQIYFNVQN
Protocol: as §1, §2

[3] = IC50 mut/IC50 G1S-A70V, listed as des(1-2)-IGF-1

T1 sequence (P17936 28-291): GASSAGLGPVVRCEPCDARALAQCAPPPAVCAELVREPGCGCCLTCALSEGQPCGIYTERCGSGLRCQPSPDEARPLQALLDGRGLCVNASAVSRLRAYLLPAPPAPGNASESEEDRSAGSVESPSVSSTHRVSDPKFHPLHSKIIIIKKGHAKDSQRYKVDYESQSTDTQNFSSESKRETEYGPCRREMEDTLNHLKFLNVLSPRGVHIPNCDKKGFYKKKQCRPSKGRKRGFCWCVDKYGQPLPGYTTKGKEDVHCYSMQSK

| larger effects on IGFBP-3 than on IGFBP-1 binding (IGFBP-3) | IC50 (IGFBP-3) [nM] | increase in IGFBP-1 binding (IGFBP-1 [2]) | IC50 (IGFBP-1 [2]) [nM] | IGFBP-3 relative IC50 (IGFBP-3; [3]) | IGFBP-1 Relative IC50 (IGFBP-1 [2]; [3]) | increase in IGFBP-3 binding (IGFBP-3) | Substance | relative specificity (IGFBP-1 [1]) |
| --- | --- | --- | --- | --- | --- | --- | --- | --- |
| about 2 fold | 1.49 ± 0.38 | approximately 2 fold | 4.3 ± 0.8 |  |  |  | D12A: IGF-1 single alanine mutant | 0.3 |
|  | 1.11 ± 0.06 |  | 8.4 ± 4.1 |  |  |  | D20A: IGF-1 single alanine mutant | 0.7 |
| about 2 fold | 0.69 ± 0.21 | approximately 2 fold | 4.7 ± 0.7 |  |  |  | D45A: IGF-1 single alanine mutant | 0.6 |
|  | 1.05 ± 0.11 |  | 15.3 ± 2.8 |  |  |  | D53A: IGF-1 single alanine mutant | 1.6 |
|  |  |  |  | no difference in affinity | no difference in affinity |  | Des(1-2)-IGF: IGF-1 mutant lacking residues 1 and 2 | 0.9 |
|  | 1.05 ± 0.08 |  | 278 ± 86 |  |  |  | E3A: IGF-1 single alanine mutant |  |
| about 2 fold | 1.32 ± 0.3 |  | 8.6 ± 0.6 |  |  |  | E9A: IGF-1 single alanine mutant | 0.6 |
|  | 0.94 ± 0.28 |  | 7.9 ± 2.1 |  |  |  | E46A: IGF-1 single alanine mutant | 0.8 |
|  | 1.03 ± 0.47 |  | 11.9 ± 1.8 |  |  |  | E58A: IGF-1 single alanine mutant | 1.1 |
| about 2 fold | 2.18 ± 0.01 |  | 10.9 ± 1.9 |  |  |  | F23A: IGF-1 single alanine mutant | 0.5 |
|  | 4.58 ± 0.28 |  | > 1000 |  |  |  | G7A: IGF-1 single alanine mutant |  |
|  | 0.9 ± 0.28 |  | 11 ± 2.3 |  |  |  | G19A: IGF-1 single alanine mutant | 1.1 |
|  | 2.07 ± 0.11 |  | 15.9 ± 2.8 |  |  |  | G22A: IGF-1 single alanine mutant | 0.7 |
|  | 0.58 ± 0.11 |  | 7.1 ± 1.7 |  |  |  | G30A: IGF-1 single alanine mutant | 1.1 |
|  | 0.76 ± 0.28 |  | 10.9 ± 1.3 |  |  |  | G32A: IGF-1 single alanine mutant | 1.3 |
|  | 0.53 ± 0.2 |  | 15.7 ± 3.4 |  |  |  | G42A: IGF-1 single alanine mutant | 2.7 |
|  | 1.17 ± 0.07 |  | 31.3 ± 4.1 |  |  |  | I43A: IGF-1 single alanine mutant | 2.4 |
|  | 0.66 ± 0.35 |  | 12.8 ± 0.1 |  |  |  | K27A: IGF-1 single alanine mutant | 1.8 |
|  | 0.69 ± 0.05 |  | 12.4 ± 0.6 |  |  |  | K65A: IGF-1 single alanine mutant | 1.6 |
|  | 0.76 ± 0.23 |  | 10.5 ± 2.8 |  |  |  | K68A: IGF-1 single alanine mutant | 1.3 |
|  | 1.53 ± 0.22 |  | 55.3 ± 11.6 |  |  |  | L5A: IGF-1 single alanine mutant | 3.3 |
|  | 3.55 ± 0.33 |  | 311 ± 87 |  |  |  | L10A: IGF-1 single alanine mutant |  |
|  | 0.9 ± 0.04 |  | 36.7 ± 1.1 |  |  |  | L14A: IGF-1 single alanine mutant | 3.7 |
|  | 1.83 ± 0.91 |  | 23.1 ± 12 |  |  |  | L54A: IGF-1 single alanine mutant | 1.2 |
|  | 1.78 ± 0.56 |  | 21.8 ± 5.6 |  |  |  | L57A: IGF-1 single alanine mutant | 1.1 |
|  | 0.93 ± 0.03 |  | 12.1 ± 3.3 |  |  |  | L64A: IGF-1 single alanine mutant | 1.2 |

| larger effects on IGFBP-3 than on IGFBP-1 binding (IGFBP-3) | IC50 (IGFBP-3) [nM] | increase in IGFBP-1 binding (IGFBP-1 [2]) | IC50 (IGFBP-1 [2]) [nM] | IGFBP-3 relative IC50 (IGFBP-3; [3]) | IGFBP-1 Relative IC50 (IGFBP-1 [2]; [3]) | increase in IGFBP-3 binding (IGFBP-3) | Substance | relative specificity (IGFBP-1 [1]) |
| --- | --- | --- | --- | --- | --- | --- | --- | --- |
|  | 0.74 ± 0.14 |  | 13.1 ± 1.8 |  |  |  | M59A: IGF-1 single alanine mutant | 1.6 |
|  | 0.9 ± 0.07 |  | 9.1 ± 1.8 |  |  |  | N26A: IGF-1 single alanine mutant | 0.9 |
|  | 0.81 ± 0.18 |  | 11 ± 3.7 |  |  |  | P2A: IGF-1 single alanine mutant | 1.2 |
|  | 1.41 ± 0.05 |  | 9.3 ± 1.4 |  |  |  | P28A: IGF-1 single alanine mutant | 0.6 |
|  | > 100 |  | > 1000 |  |  |  | P63A: IGF-1 single alanine mutant |  |
|  | 0.57 ± 0.12 |  | 9.4 ± 3.2 |  |  |  | P66A: IGF-1 single alanine mutant | 1.5 |
|  | 1.26 ± 0.41 |  | 13.9 ± 0.9 |  |  |  | Q15A: IGF-1 single alanine mutant | 1.0 |
|  | 0.56 ± 0.03 |  | 10.2 ± 0.9 |  |  |  | Q40A: IGF-1 single alanine mutant | 1.7 |
|  | 0.58 ± 0.01 |  | 7.1 ± 1.6 |  |  |  | R21A: IGF-1 single alanine mutant | 1.1 |
|  | 0.75 ± 0.08 |  | 12.3 ± 0.1 |  |  |  | R37A: IGF-1 single alanine mutant | 1.5 |
|  | 0.66 ± 0.03 |  | 9 ± 2.3 |  |  |  | R55A: IGF-1 single alanine mutant | 1.2 |
|  | 1 ± 0.19 |  | 13.1 ± 1.8 |  |  |  | R56A: IGF-1 single alanine mutant | 1.2 |
|  |  |  |  |  |  |  | S1G: single mutant of G1S-A70V IGF-1 restoring G1 | 1.0 |
|  | 1.01 ± 0.24 |  | 9.1 ± 1 |  |  |  | S33A: IGF-1 single alanine mutant | 0.8 |
| about 2 fold | 1.65 ± 0.21 |  | 9.5 ± 0.7 |  |  |  | S34A: IGF-1 single alanine mutant | 0.5 |
|  | 0.47 ± 0.01 |  | 11.7 ± 0.6 |  |  | approximately 2 fold | S35A: IGF-1 single alanine mutant | 2.3 |
|  | 0.65 ± 0.35 |  | 13.4 ± 0.4 |  |  |  | S51A: IGF-1 single alanine mutant | 1.9 |
|  | 0.71 ± 0.62 |  | 12.8 ± 2.3 |  |  |  | S69A: IGF-1 single alanine mutant | 1.3 |
| about 2 fold | 1.23 ± 0.16 |  | 7.3 ± 2.4 |  |  |  | T29A: IGF-1 single alanine mutant | 0.5 |
|  | 0.43 ± 0.06 |  | 13.7 ± 3.1 |  |  | approximately 2 fold | T41A: IGF-1 single alanine mutant | 2.9 |
|  | 3.67 ± 1.02 |  | 42.9 ± 3.2 |  |  |  | V17A: IGF-1 single alanine mutant | 1.1 |
|  | 1.03 ± 0.06 |  | 18.8 ± 5.4 |  |  |  | V44A: IGF-1 single alanine mutant | 1.7 |
|  |  |  |  |  |  |  | V70A: single mutant of G1S-A70V IGF-1 restoring A70 | 2.6 |
| about 2 fold | 2.53 ± 0.76 |  | 13.3 ± 2.9 |  |  |  | Y24A: IGF-1 single alanine mutant | 0.5 |
|  | 0.73 ± 0.1 |  | 6.8 ± 0.5 |  |  |  | Y31A: IGF-1 single alanine mutant | 0.9 |
|  | 0.52 ± 0.01 |  | 6.6 ± 1.8 |  |  |  | Y60A: IGF-1 single alanine mutant | 1.2 |
